{"source": "the DeepSol protein solubility set"}
{"assay": "soluble on expression in E. coli; label from the status in PepcDB or PDB records"}
{"sequence": "MSLAKALSLMLAQLNLTVGAIEDNCDKVLAAAAEADRQGADLLVCSELALTGYPPEDLLLRVDLMIRVEAALARLAAWQGACAILVGHPWRDGEALYNAASLYEQGKLVARYFKQDLPNYGVFDEKRYFTAATETCVVPFRGHQLGLLICEDLWQPGPALAAKAAGAELLLTINASPYDQEKPWIRRELMAERCDQTGLPLVYLNQVCGQDELIFDGCSKVFNSQGELTHKLAPFAEELALVRFADGQPVKEREPAAPLEPLAETYQALVLAVRDYVTKNGFHGAVLGLSGGIDSALTLAIAADAIGADKVQAVMMPFRYTAQMSVEDAKEQAERMGVEFNIISIEPMFEGFMAQLAPLFEGTARDTTEENLQARCRGVLLMALSNKRRCIVLTTGNKSEMAVGYATLYGDMAGGFDVLKDVPKTLVFKLCEYRNSVDYVIPQRVIDRPPSAELAPDQVDQDSLPPYDILDAILKRYVEEDASVADMVAEGFEEAVVRKVIRLVDLNEYKRRQAAVGPRITARNFGKDRRYPITSGFGKQNWEGHHHHHH", "soluble on expression in E. coli": "soluble"}
{"sequence": "MSLAMLMLLAACSERSADWSLYNVKGHLPDLKFSLPGAHGKTVSSDDLKGKTVLLFFGYASCPDVCPTTMAQLTAVLQQLGEQARDVRILFVSVDPHRDTPDILQAYVNAFNNNAIGVTGNEKQIADLARRYRLAYQIEKPKPGDDADIYDVTHSRGVYIFDNQGKARLLASDTDTIDTMVKDLRQLIAQTQEGHHHHHH", "soluble on expression in E. coli": "soluble"}
{"sequence": "MSLAPFVAKDIRVDGVQGDLEQQIRASLPVRAGQRVTDNDVANIVRSLFVSGRFDDVKAHQEGDVLVVSVVAKSIISDVKIKGNSVIPTEALKQNLDANGFKVGDVLIREKLNEFAKSVKEHYASVGRYNATVEPIVNTLPNNRAEILIQINEDDKAKLASLTFKGNESVSSSTLQEQMELQPDSWWKLWGNKFEGAQFEKDLQSIRDYYLNNGYAKAQITKTDVQLNDEKTKVNVTIDVNEGLQYDLRSARIIGNLGGMSAELEPLLSALHLNDTFRRSDIADVENAIKAKLGERGYGSATVNSVPDFDDANKTLAITLVVDAGRRLTVRQLRFEGNTVSADSTLRQEMRQQEGTWYNSQLVELGKIRLDRTGFFETVENRIDPINGSNDEVDVVYKVKERNTGSINFGIGYGTESGISYQASVKQDNFLGTGAAVSIAGTKNDYGTSVNLGYTEPYFTKDGVSLGGNVFFENYDNSKSDTSSNYKRTTYGSNVTLGFPVNENNSYYVGLGHTYNKISNFALEYNRNLYIQSMKFKGNGIKTNDFDFSFGWNYNSLNRGYFPTKGVKASLGGRVTIPGSDNKYYKLSADVQGFYPLDRDHLWVVSAKASAGYANGFGNKRLPFYQTYTAGGIGSLRGFAYGSIGPNAIYAEYGNGSGTGTFKKISSDVIGGNAIATASAELIVPTPFVSDKSQNTVRTSLFVDAASVWNTKWKSDKNGLESDVLKRLPDYGKSSRIRASTGVGFQWQSPIGPLVFSYAKPIKKYENDDVEQFQFSIGGSFEGHHHHHH", "soluble on expression in E. coli": "not soluble"}
{"sequence": "MSLAQTNQAEVGEPAPNFTLQAADGDEHSLADFEGQYVVLEWLNFGCPFVGKHYGSGNMQRLQDTYTDEGVVWLSIVSSAPGKQGYYPPGEMVEQKKKHDGNMTAILMDPEGEVGKTYDATVTPHMYVISPEGELLYRGGIDDKPTTDEADIEGATNYVRMALDAAMNGEEVRPKRAEPYGCTIKYASKEGHHHHHH", "soluble on expression in E. coli": "soluble"}
{"sequence": "MSLARDYRWEGVPLKAYKTDGTHFRAITRQTLLGADEDERALGHQTRYFEIAPGGYSSLERHQHTHTVMILRGQGELILGDALHRIGRHDCIYIAPQTFHQFHASGDEPLGFLCIVDRERDRPRLPDDDELARMRALPGVGPKVRTEGHHHHHH", "soluble on expression in E. coli": "soluble"}
{"sequence": "MSLARQNYHDEVEAAVNKQINVELYASYVYLSMSAHFDRDDIALRNIAKFFKEQSDEERGHATELMRIQAVRGGRVAMQNIQKPEKDEWGTVLEAFEAALALERANNASLLKLHGIAEQRNDAHLTNYIQEKYLEEQVHSINEFARHIANIKRAGPGLGEYLFDKEEFSD", "soluble on expression in E. coli": "not soluble"}
{"sequence": "MSLARQVTAFNTGWQFKKGPFATDPMRAASQWDGKWETVEIPHTWNAMDMQVQSGSFYEGAGYYRKTQFFPHDLEGKRVFLRFEGVGACAEVYVNGKLAGTHKGGYSAFACEIGTALKLGAENEIIVKADNKARPDVIPVNQNLFGVYGGIYRPVWLIVTEQNNITVTDCASPGVYITQKDVSKKSADITVKVKLDNAGLQPAAVTLENTIYTQEGQKVGTHSRSFDLSPQGTQTYLSTFKLKNPHLWQGRKDPYLYKVVCRLMADGKVIDEVVQPLGVRKYEIVAGKGFFLNGEKYSMYGVTRHQDWWGLGSALKNEHHDFDLAAIMDVGATTVRFAHYQQSDYLYSRCDTLGLIIWAEIPCVNRVTGYETENAQSQLRELIRQSFNHPSIYVWGLHNEVYQPHEYTAALTRSLHDLAKTEDPDRYTVSVNGYGHMDHPVNLNADIQGMNRYFGWYEKKIQDIKPWVEQLEKDYPYQKLMLTEYGADANLAHQTEYLGDALNWGKPFYPETFQTKTHEYQWSIIKDHPYIIASYLWNMFDFAVPMWTRGGVPARNMKGLITFDRKTKKDSYFWYKANWSEEPVLYLTQREGHHHHHH", "soluble on expression in E. coli": "not soluble"}
{"sequence": "MSLARTNVMIAETFPEYLVDHNLIDCEVESLCNGMVRYEKRPARRRDGSVAEGLYNAWIIFNNPRQYNSYTTEMVKATILAFRRASVDREVNAVVFTGVGDKAFCTGGNTKEYAEYYAGNPQEYRQYMRLFNDMVSSILGCDRPVICRVNGMRIGGGQEIGMACDFSIAQDLAKFGQAGPKHGSAAIGGATDFLPIMIGCEQAMVSGTLCEPFSAHKAARLGIIADVVPALKVGGTFVANPTVVTDRFLDEYGRVVQGEFKTGADFKAGQARIKEGEVDLSLLDEKVEELCAKLLETFPECMTKSLEELRKPKLQAWNLNKENSRAWLALNMMNEARIGFRAFNEGTKETGREIDFVKLRRQLAEGTPWAEELIEEGHHHHHH", "soluble on expression in E. coli": "soluble"}
{"sequence": "MSLARVSGDAPAVSWETLDLHTAQPFGIARWTHSVYPRTFVTLTLDGRRGRGEAAPNAFYGETRGTVEAVLPLLAPALSDPWDWDGLHAALGARMPHDHPSVKCALEMAAVEWCAQAAGVPVWQLLGLSPTVLPESSYTVSLAPLPDMRRQAREAVGRGHRVLKVKLGTDQDEAILEALREEVPEVALRVDANAAWTRAQAKRMLGVLDAARVEFVEQPLAAGDLEGHAMLRGVSPVPIVADESLHHVGDVLALARAFDGVNLKLAKLGGPLQALRALRLARAHGMQVMMGCMIESSLGIAAAAHLAGLCDWADLDGALLLADDPYTGLDWTAGQLARPGGTGWGVTRRSEGHHHHHH", "soluble on expression in E. coli": "soluble"}
{"sequence": "MSLASGNTLTYGLVVPDISNPFFASMARALQREAFNHGRVLLLGDAGDDRQHEHDLINHLLRRQVDGLLYTSVDRHPWFDLIRNSGTPCVMIDTIDSHAGISAIRVNERDAACQATRHLLQHGYRELGIFVGPLTMLNAQDRLNGWRDALIEAGITPREEWIFEAPYTRKGGYQASQKMLQGPCPRAIFTSNEQQALGCLSALAEHQLRVPDDLAIICFNGTQQSEFSVPPLSAVEQPIDAMARQAIAMLATGTAQPELHEFAFQLHIRRSEGHHHHHH", "soluble on expression in E. coli": "soluble"}
{"sequence": "MSLAVERLFGTNGIRGIPNDDMSPDFAMSVGKAIGTYVSGEIAFGTDTRLTGDMIKNAVIAGILSTGISVIDLGVLPTPAIQYYSKKHGIYAVVITASHNPPQYNGIKVIDKDGTELERPGEEKIEEIFYSKAFRVVKWENIGRIRQVSDAIDIYINGVISNVDSDNIKSHAFKVLADAGNGAAYYSTPKLLEKLGCSITTLNANPDGRFTARNAEPVPENLVNLISLMKSGRFDLGIAHDGDADRAVFIDEKGNFIDGDRMLALITKYIAKAGDVVVTPVSSSDTIADICNAIGAKLIRTKVGAPIVARAMIDNGATIGGEENGGVIYGKHQYCRDGAMTVSLVLNLMASTNKKLSELISELPVYYLIKKKVERRVDWPSLARELKKGERVDETDGIKILKDDGWILIRPSGTEKILRIYAHSSDFELANKYCEQYIRKVNDIQDKLSEGHHHHHH", "soluble on expression in E. coli": "not soluble"}
{"sequence": "MSLCDYLERSAKKFPEKVAVQGVRLGHIEAITYAELNTFSDRFSEFLRAQGVTRGEFIPFFMFKEIDSIKSIFSILKADCAYVPLDCKSPEGRLLSIIKSCKAKFIIVNERSESLAERVFSAIPTLKIINISEFVSDTAFVFSASLNISVDLAYVLFTSGSTGTPKGVMISHQAIIDYIGWCTETYNITAIDHVSNHAPLYFDNSTFDIYTSMAAGATLHLVPEEFNVMLPRLIDWIEDNRISIFFCVPSILTLMLQTGRLRTERFVELKHLICAGEVLPTTTAKKILGLFPHLQLTNMYGPTEITVDCTYHVIREADVTSSTSIPIGKPRRNMQLMVLTDDGAVTNERGAIGELMVRGSSVSYGYLDNYAKTQEAFVQNPAHSLYPDMVYKTGDRVTIGEEGLYYYCGRLDNQIKHLGYRIELGEIEANALLLDTVLEAVAVYRSSTSMFESAICMAVKTTVPTDVRTLRAALTSVLPPYMIPGHFVFLDSDFPRTPNGKYDRASILGLFVEGHHHHHH", "soluble on expression in E. coli": "not soluble"}
{"sequence": "MSLDFSHEFFGSLDPQALAHPDSIKWQHYGEGVIPMWIADMDFPVAPPILRALEDRLTRGLGYPLGRDDRLIADLQTKWASQGLTDVPADGIHFTPSVVPGLYAGVHGLTEPGDRVVTMTPIYHPFHLAINDLGREVAAAPLREGDTRWEIDWDALERAAEGARLLMLCHPHNPCGRVWDADELARLRELVLAHDLYVISDELHADLRFTDAPFEAFAADPRVRDRTLTVTGPCKAFNTAGLGIGVMVTHDPELLARVQRRVAGLGGHPSALSFTMWRVALEDGGPWLARTVEYLRGNRDFMTAFLRERLPWVRFTVPEATYLAWLDLREHPEAGRIQEFLLEEAKVAVHNGPTFAPGEQGAAYQGFIRVNFATSRAILTEALERMARALDTRQEGHHHHHH", "soluble on expression in E. coli": "not soluble"}
{"sequence": "MSLDIAVVGIGYVGLVSATCFAELGANVRCIDTDRNKIEQLNSGTIPIYEPGLEKMIARNVKAGRLRFGTEIEQAVPEADIIFIAVGTPAGEDGSADMSYVLDAARSIGRAMSRYILIVTKSTVPVGSYRLIRKAIQEELDKREVLIDFDIASNPEFLKEGNAIDDFMKPDRVVVGVDSDRARELITSLYKPMLLNNFRVLFMDIASAEMTKYAANAMLATRISFMNDVANLCERVGADVSMVRLGIGSDSRIGSKFLYPGCGYGGSCFPKDVKALIRTAEDNGYRMEVLEAVERVNEKQKSILFDKFSTYYKGNVQGRCVAIWGLSFKPGTDDMREAPSLVLIEKLLEVGCRVRVYDPVAMKEAQKRLGDKVEYTTDMYDAVRGAEALFHVTEWKEFRMPDWSALSQAMAASLVIDGRNVYELPADSDFTLLNIGNSAIESEGHHHHHH", "soluble on expression in E. coli": "soluble"}
{"sequence": "MSLDIHEGNLMPAKRKLTMRHIRQMLRLAGSGTSSREIAVMLGIARSTVQDNLKRAAMAGLSWALASGLTDDVLEAKLFVHPGVKRGQRLRQEPDWGPLSIELKKPGVTLLILWEEYRSAHPDGYGYSRFCELFRGFEKRLSPTMRQEHIAGDKVFVDYSGKKVPIVDRKTGEIREAELFLGVLGASSYCTRGRSVHLGELLRRAWIFQHLGNREGHHHHHH", "soluble on expression in E. coli": "soluble"}
{"sequence": "MSLDKNRTMLLIVDINKGFAKEGALYSDRIEKLISPISNLANYALNSGIRVKAFTDYHTEDSIELKAYPKHCMKDTDEWELVDELNLEGIEVIKKNSTNGFLEENFILNKEEIDNVIIVGDCTDICIYQLAISLRAEFNRVNKDGEIYVPKKLVDTFDMPMHKANFMNYVFLNSMLDNGVKVIEDIILDEGHHHHHH", "soluble on expression in E. coli": "not soluble"}
{"sequence": "MSLDKNSKSFGEANERIGNAIHHVCLNASDAKFIKSNIQESYQSWANVLYDRVFLNWGLCDKKIYRELSSLNFDFSTVGFFPHVYGQSLLFYLIRPLIKIHFFNKRLLDVGCGNGVGLKISSELLKTRYALGIDLVSKLVTNSNNSFYIEDKINYMQADAENMAIANESFDIVTNLESSHLYPQIEHFFSEVERVLAPNGFFCYADVHFDVKQQAQRLEAFVKTKKNLRIIEKHNITKMVQASIYQRLIVNEKGFYQLAQYLLGPDKIHYTSELANVASSMGLMFLPWWRIRFKNPALQALGKFARRCKHWNKKYYFYYLIQKIDSEGHHHHHH", "soluble on expression in E. coli": "not soluble"}
